Each block holds one binder with its values, some of them ahead of it.
Tests used:
[1] = molecular target: H1.2 (Homo sapiens, UniProt P16403 1-213); experiment: condensate FRAP; 5 uM histone, 5 uM DNA; Condensates: 1x PBS, RT; array EMSA: agarose gel with competitor DNA, buffer not in the material; settings: protein: recombinant; tags: C-terminal His6; label: Atto-390 at 5' end of the reverse strand; blunt
[2] = molecular target: T1, linker histone H1.2 (unmodified, recombinant) (human, UniProt P16403 1-213); experiment: cross-linking; XL-MS: histone/Ub and SIRT1 at molar ratio 1:1 in 1x PBS, 2.75 mM BS3-H12/D12, 10 min on ice then 20 min at 30 °C; three biological replicates; settings: both partners purified
T1 construct: human linker histone H1.2; also called non-modified H1.2; unmodified H1.2; source: E. coli BL21 (DE3), purified from inclusion bodies (His-tag resin); not shown: Strep-tag II, N-terminal, kept; His6, C-terminal, kept
T1 sequence (P16403 whole entry): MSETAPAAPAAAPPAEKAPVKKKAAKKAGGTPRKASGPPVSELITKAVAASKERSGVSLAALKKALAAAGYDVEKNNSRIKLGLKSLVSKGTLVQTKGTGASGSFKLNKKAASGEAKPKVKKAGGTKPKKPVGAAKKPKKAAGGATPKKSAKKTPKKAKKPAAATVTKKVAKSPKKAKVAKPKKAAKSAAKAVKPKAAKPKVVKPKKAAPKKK

Chain of H1.2 (P16403 whole entry): as above

B1: 601 DNA (dsDNA)
DNA 1: CTATACGCGGCCGCCCTGGAGAATCCCGGTGCCGAGGCCGCTCAATTGGTCGTAGCAAGCTCTAGCACCGCTTAAACGCACGTACGCGCTGTCCCCCGCGTTTTAACCGCCAAGGGGATTACTCCCTAGTCTCCAGGCACGTGTCAGATATATACATCCTGTGCATGTGGATCCGAAT
DNA 2: ATTCGGATCCACATGCACAGGATGTATATATCTGACACGTGCCTGGAGACTAGGGAGTAATCCCCTTGGCGGTTAAAACGCGGGGGACAGCGCGTACGTGCGTTTAAGCGGTGCTAGAGCTTGCTACGACCAATTGAGCGGCCTCGGCACCGGGATTCTCCAGGGCGGCCGCGTATAG
binding result [1]: binds

binding result [2]: binds
B2: SIRT1 with N-terminal deletion (recombinant) (enzyme, human, UniProt Q96EB6 1-3, looked up)
chain: MADEAAAAGGEQEAQATAAAGEGDNGPGLQGPSREPPLADNLYDEDDDDEGEEEEEAAAAAIGYRDNLLFGDEIITNGFHSCESDEEDRASHASSSDWTPRPRIGPYTFVQQHLMIGTDPRTILKDLLPETIPPPELDDMTLWQIVINILSEPPKRKKRKDINTIEDAVKLLQECKKIIVLTGAGVSVSCGIPDFRSRDGIYARLAVDFPDLPDPQAMFDIEYFRKDPRPFFKFAKEIYPGQFQPSLCHKFIALSDKEGKLLRNYTQNIDTLEQVAGIQRIIQCHGSFATASCLICKYKVDCEAVRGDIFNQVVPRCPRCPADEPLAIMKPEIVFFGENLPEQFHRAMKYDKDEVDLLIVIGSSLKVRPVALIPSSIPHEVPQILINREPLPHLHFDVELLGDCDVIINELCHRLGGEYAKLCCNPVKLSEITEKPPRTQKELAYLSELPPTPLHVSEDSSSPERTSPPDSSVIVTLLDQAAKSNDDLDVSESKGCMEEKPQEVQTSRNVESIAEQMENPDLKNVGSSTGEKNERTSVAGTVRKCWPNRVAKEQISRRLDGNQYLFLPPNRYIFHGAEVYSDSEDDVLSSSSCGSNSDSGTCQSPSLEEPMEDESEIEEFYNGLEDEPDVPERAGGAGFGTDGDDQEAINEAISVKQEVTDMNYPSNKS
notes: human NAD+-dependent deacetylase SIRT1, aa 1-3 (construct of 669 aa: aa 1-3 + 82-747); human NAD+-dependent deacetylase SIRT1, aa 82-747 (construct of 669 aa: aa 1-3 + 82-747); source: E. coli BL21 (DE3), purified (HisTrap FF, size-exclusion chromatography); not shown: His6, C-terminal, kept

Source: publication PMC8190259, “Site-specific ubiquitylation acts as a regulator of linker histone H1” (Nature Communications, 2021)
